Measured values published in patent US20210188980A1 (SHANGHAI EPIMAB BIOTHERAPEUTICS, published 2021).

Columns and labels:
[1] = biological target: T1, human PD-1 expressed on cells (human, UniProt Q15116 25-288); test: cell-based or functional assay
[2] = biological target: T2, human LAG-3 expressed on cells (human, UniProt P18627 23-525); test: cell-based or functional assay
T2 sequence (looked up): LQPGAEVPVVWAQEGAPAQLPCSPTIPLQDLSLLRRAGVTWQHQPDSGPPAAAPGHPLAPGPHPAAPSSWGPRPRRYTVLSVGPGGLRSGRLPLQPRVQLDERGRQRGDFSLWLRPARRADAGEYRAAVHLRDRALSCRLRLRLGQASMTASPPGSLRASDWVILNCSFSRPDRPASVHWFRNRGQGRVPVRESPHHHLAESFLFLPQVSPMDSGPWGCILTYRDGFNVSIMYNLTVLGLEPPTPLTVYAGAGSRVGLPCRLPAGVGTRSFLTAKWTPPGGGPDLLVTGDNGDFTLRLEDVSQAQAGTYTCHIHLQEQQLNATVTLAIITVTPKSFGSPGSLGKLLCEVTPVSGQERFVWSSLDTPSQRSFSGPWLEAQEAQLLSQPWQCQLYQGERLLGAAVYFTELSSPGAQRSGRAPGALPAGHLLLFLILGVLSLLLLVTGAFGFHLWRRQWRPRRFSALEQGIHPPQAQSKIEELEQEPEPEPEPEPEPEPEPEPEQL

[3] = biological target: T3, human PD-1-His protein (human, UniProt Q15116 25-167, limits assumed); test: SPR Biacore
T3 construct: also called huPD-1; not shown: His tag

[4] = biological target: T1, human PD-1 expressed on cells; test: cell RBA FACS; competitor PD-L2/Fc
[5] = biological target: T1, human PD-1 expressed on cells; test: flow cytometry, biotinylated antibody + FITC-streptavidin, CD3 T cells; panel 'PBMC stimulation for 72h, Lag3 antibody treated group' (cells pre-treated with unlabelled HumAb747V-67)
Method: (§1) To further evaluate the cell surface binding ability of FIT107-1-7b-1, the parental antibodies HumAb713-7, HumAb747V-67, and the bispecific FIT-Ig FIT107-1-7b-1 were biotinylated with biotin reagent (Sigma, Cat. No. S3259). For PBMC without stimulation, PBMCs were re-suspended at 5×10⁶ cells/mi. For PD-1 antibody (HumAb713-7) or LAG-3 antibody (HumAb747V-67) testing, 100 μg/ml of antibody were added and the reaction mixture allowed to incubate at 37° C. for 40 minutes separately, followed by two washes with FACS buffer. Then 100 μl, 5×10⁵ PBMC/well (untreated group, anti-PD-1 antibody treated group and anti-LAG-3 antibody treated group) were seeded into wells of 96-well plate. Biotinylated HumAb713-7, HumAb747V-67 and FIT107-1-7b-1 were added and incubated at 37° C. for 40 minutes (final working concentration starting from 100 nM with 3-fold serial dilution) followed by washing with FACS buffer twice. FITC-streptavidin and BV421-anti human-CD3 antibody were added and the assay plate incubated at 4° C. for 30 minutes, followed by washing with FACS buffer twice. The plate was analyzed with a Beckman Coulter CytoFlex flow cytometer, PBMC stimulation groups were stimulated with anti-CD3 plus anti-CD28 antibody for 72 hours, to induce PD-1 and LAG-3 expression on T cells. […]

[6] = biological target: T1, human PD-1 expressed on cells; test: flow cytometry, biotinylated antibody + FITC-streptavidin, CD3 T cells; panel 'PBMC without stimulation, untreated group'
Method: as §1

[7] = biological target: T1, human PD-1 expressed on cells; test: cell RBA FACS; competitor PD-L1/Fc
[8] = biological target: T1, human PD-1 expressed on cells; test: flow cytometry, biotinylated antibody + FITC-streptavidin, CD3 T cells; panel 'PBMC without stimulation, Lag3 antibody treated group' (cells pre-treated with unlabelled HumAb747V-67)
Method: as §1

[9] = biological target: T1, human PD-1 expressed on cells; test: flow cytometry, biotinylated antibody + FITC-streptavidin, CD3 T cells; panel 'PBMC stimulation for 72h, untreated group' (anti-CD3 plus anti-CD28)
Method: as §1

[10] = biological target: T2, human LAG-3 expressed on cells; test: flow cytometry, biotinylated antibody + FITC-streptavidin, CD3 T cells; panel 'PBMC stimulation for 72h, PD1 antibody treated group' (cells pre-treated with unlabelled HumAb713-7)
Method: as §1

[11] = biological target: T4, recombinant human LAG-3-his protein (Novoprotein) (human, UniProt P18627 23-450); test: BLI Octet, Ab on AHC sensor, huLAG-3-his; test group 2
T4 construct: Bought; also called huLAG-3; not shown: His tag
T4 sequence (looked up): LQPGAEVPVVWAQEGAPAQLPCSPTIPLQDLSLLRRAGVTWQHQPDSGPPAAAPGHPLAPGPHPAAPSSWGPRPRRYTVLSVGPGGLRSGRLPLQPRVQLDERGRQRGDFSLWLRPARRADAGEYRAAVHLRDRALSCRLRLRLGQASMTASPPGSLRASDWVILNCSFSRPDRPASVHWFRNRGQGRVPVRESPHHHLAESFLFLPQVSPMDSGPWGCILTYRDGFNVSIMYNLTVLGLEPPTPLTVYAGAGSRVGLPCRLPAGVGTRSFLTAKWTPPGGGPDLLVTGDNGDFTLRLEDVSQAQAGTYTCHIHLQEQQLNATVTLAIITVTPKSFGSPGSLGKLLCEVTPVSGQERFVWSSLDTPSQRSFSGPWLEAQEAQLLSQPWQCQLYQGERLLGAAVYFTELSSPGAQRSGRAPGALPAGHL
Method: All 9 humanized antibodies (Table 25) and a chimeric antibody having the parental murine VH and VL domains (mAb747c) were ranked by dissociation rate constant (koff). Briefly, antibodies were characterized for affinities and binding kinetics by Octet RED96 biolayer interferometry (Pall FortéBio LLC). Antibodies were captured by Anti-HIgG Fc Capture (AHC) Biosensors (Pall) at a concentration of 100 nM for 30 seconds. Sensors were then dipped into running buffer (1× pH7.2 PBS, 0.05% Tween 20, 0.1% BSA) for 60 seconds to check baseline. Binding was measured by dipping sensors into a single concentration of recombinant human LAG-3-his protein (Novoprotein). Dissociation was followed by dipping sensors into running buffer for 1200 seconds. The association and dissociation curves were fitted to a 1:1 Langmuir binding model using FortéBio Data Analysis software (Pall).
All 13 humanized antibodies (Table 39) and chimeric anti-LAG-3 antibody mAb747c having the parental murine VH and VL domains were ranked by dissociation rate constant (koff) in the same manner described in Example 9.1 supra. In each test group, the off-rates of antibodies were able to be compared with that of mAb747c. The off-rate ratios were calculated by the off-rate of antibody to that of mAb747c of its group and were compared all together. The lower the ratio was, the higher was the affinity of the antibody.

[12] = biological target: T2, human LAG-3 expressed on cells; test: flow cytometry, biotinylated antibody + FITC-streptavidin, CD3 T cells; panel 'PBMC stimulation for 72h, untreated group' (anti-CD3 plus anti-CD28)
Method: as §1

[13] = biological target: T2, human LAG-3 expressed on cells; test: flow cytometry, biotinylated FIT-Ig + FITC-streptavidin, CD3 T cells; panel 'PBMC stimulation for 72h, PD1 antibody treated group'; PD-1 pre-blocked with unlabelled HumAb713-7, so the signal is laid to LAG-3
Method: as §1

[14] = biological target: T4, recombinant human LAG-3-his protein …; test: BLI Octet, FIT-Ig captured, antigen analyte
[15] = biological target: Cyno PD-1-His (cynomolgus, UniProt B0LAJ3 25-170); test: BLI Octet, FIT-Ig captured, antigen analyte
[16] = biological target: T3, human PD-1-His protein; test: BLI Octet, FIT-Ig captured, antigen analyte
[17] = biological target: Cyno LAG-3-His (cynomolgus); test: BLI Octet, FIT-Ig captured, antigen analyte

T1 sequence (Q15116 25-288): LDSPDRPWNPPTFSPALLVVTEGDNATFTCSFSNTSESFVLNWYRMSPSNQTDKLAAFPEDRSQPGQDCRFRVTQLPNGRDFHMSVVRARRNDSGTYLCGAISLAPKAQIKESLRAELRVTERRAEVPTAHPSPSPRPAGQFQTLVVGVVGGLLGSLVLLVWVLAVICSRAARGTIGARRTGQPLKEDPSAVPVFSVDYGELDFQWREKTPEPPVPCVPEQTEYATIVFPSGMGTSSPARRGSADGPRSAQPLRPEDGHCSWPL
Cyno PD-1-His, sequence (B0LAJ3 entry or part of it limits assumed): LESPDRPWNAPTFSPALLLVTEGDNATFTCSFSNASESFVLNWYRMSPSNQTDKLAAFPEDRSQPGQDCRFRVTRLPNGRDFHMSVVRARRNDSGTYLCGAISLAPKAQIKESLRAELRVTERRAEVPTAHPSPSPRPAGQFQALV
T3 sequence (Q15116 25-167 limits assumed): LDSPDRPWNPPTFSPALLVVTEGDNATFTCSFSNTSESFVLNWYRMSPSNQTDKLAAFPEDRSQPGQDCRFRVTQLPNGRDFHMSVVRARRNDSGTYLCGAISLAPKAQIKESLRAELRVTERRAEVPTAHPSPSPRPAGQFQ

B1: FIT107-1-2a (bispecific antibody, human IgG1, kappa, L234A L235A)
chain 1: not shown
chain 2: EVKLVESGGGLVKPGGSLKLSCAASGFTFSFYTMSWVRQTPEKRLEWVATISGGGRDTYYPDSVKGRFTISRDNAKNTLYLHMSSLRSEDTALYYCAGQGGNYLFAYWGQGTLVTVSAASTKGPSVFPLAPSSKSTSGGTAALGCLVKDYFPEPVTVSWNSGALTSGVHTFPAVLQSSGLYSLSSVVTVPSSSLGTQTYICNVNHKPSNTKVDKKVEPKSC
chain 3: DIQMTQSPSSLSASLGERVSLNCRASQEISGYLSWLQQKSDGTIKRLIYAASTLDSGVPKRFSGSRSGSDYSLTISSLESEDFADYYCLQYASYPLTFGAGTKLELKRTVAAPSVFIFPPSDEQLKSGTASVVCLLNNFYPREAKVQWKVDNALQSGNSQESVTEQDSKDSTYSLSSTLTLSKADYEKHKVYACEVTHQGLSSPVTKSFNRGEC
- MLR, IFN-γ production, EC50 [1]: 0.508 nM
- MLR, IFN-γ production, EC50 [2]: 0.508 nM

B2: HumAb713-7 (antibody, human IgG1, kappa, L234A L235A, V domains shown)
VH: EVQLVESGGGLVQPGGSLRLSCAASGFTSSDYGMHWVRQAPGKGLEWVSYISSGSYTIYYADTVKGRFTISRDNAKNSLYLQMNSLRDEDTAVYYCAKRGGSSHVNVMDYWGQGTTVTVSS
VL: DIQMTQSPSSLSASVGDRVTITCKASDHINNWLAWYQQKPGKAPKLLIYGATSLETGVPSRFSGSGSGTDYTFTISSLQPEDIATYYCQQYWSPPYTFGGGTKVEIKR
notes: humanized mAb713
- Kd [3]: 2.83 nM
- koff [3]: 0.00035 s⁻¹
- kon [3]: 124000 M⁻¹ s⁻¹
- IC50 [4]: 1.4 nM
- EC50 (read off the curve) [5]: ~3 nM
- EC50 (read off the curve) [6]: ~3 nM
- IC50 [7]: 0.76 nM
- EC50 (read off the curve) [8]: ~3 nM
- EC50 (read off the curve) [9]: ~2 nM

B3: HumAb747V-67 (antibody, human IgG1, V domains shown)
VH: EVQLVQSGAEVKKPGATVKLSCTASGFNIKDDYMHWVKQRPEQGLDWIGWIVPENGNTVYASKFQGKATITADTSTNTAYLELSSLRSEDTAVYYCTVYGDYWGQGTTVTVSS
VL: DIQMTQSPSSLSASVGDRVTITCRASQEISGYLSWLQQKPGGAIKRLIYAASALDSGVPSRFSGSRSGSDYTLTISSLQPEDFADYYCLQYASYPLTFGQGTKLELK
notes: engineered HumAb747-60 variant; human IgG1/kappa constant domains
- EC50 (read off the curve) [10]: 1 to 2 nM
- koff [11]: 0.000319 s⁻¹
- off-rate ratio to that of mAb747c [11]: 47%
- EC50 (read off the curve) [12]: ~1 nM

B4: FIT107-1-7b-1 (bispecific antibody, human IgG1, kappa, L234A L235A)
chain 1: not shown
chain 2: EVQLVQSGAEVKKPGATVKLSCTASGFNIKDDYMHWVKQRPEQGLDWIGWIVPENANTVYASKFQGKATITADTSTNTAYLELSSLRSEDTAVYYCTVYGDYWGQGTTVTVSSASTKGPSVFPLAPSSKSTSGGTAALGCLVKDYFPEPVTVSWNSGALTSGVHTFPAVLQSSGLYSLSSVVTVPSSSLGTQTYICNVNHKPSNTKVDKKVEPKSC
chain 3: not shown
notes: FIT-Ig hexamer; outer Fab anti-LAG-3 (HumAb747V-67 with VH G55A), inner Fab anti-PD-1 (HumAb713-7); also called FIT107-7b-1
- EC50 (read off the curve) [13]: ~1 nM
- Kd [14]: 1.22 nM
- koff [14]: 0.000243 s⁻¹
- kon [14]: 200000 M⁻¹ s⁻¹
- Kd [15]: 3.61 nM
- koff [15]: 0.000775 s⁻¹
- kon [15]: 215000 M⁻¹ s⁻¹
- Kd [16]: 10.4 nM
- koff [16]: 0.000935 s⁻¹
- kon [16]: 89600 M⁻¹ s⁻¹
- Kd [17]: 0.123 nM
- koff [17]: 6.36e-05 s⁻¹
- kon [17]: 519000 M⁻¹ s⁻¹
